Laboratory results from the supplement of paper PMC9170038.

How the values were obtained:
MS2 coat protein [1] = experiment: apparent KD of MS2 coat protein, switch OFF state (with FMN for OFF switches, without FMN for ON switches); designed switch direction (-1 OFF switch, 1 ON switch): -1; higher = weaker reporter binding; conditions: FMN input: 0 or 200 uM; Eterna round: R93 (includes R88 designs)
In short: (§1)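 Values are apparent KD, taken as the median for each design of fits to normalised binding curves from individual clusters. The designed RNA switches were transcribed on-chip from Illumina sequencing clusters and exposed to SNAP-549-labelled MS2 coat protein at twofold increasing amounts from 0.7 or 1.5 nM to 3 µM. Titration used 100 mM Tris-HCl pH 7.5, 80 mM KCl and 4 mM MgCl2, without or with constant ligand.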

MS2 coat protein [2] = experiment: apparent KD of MS2 coat protein, switch ON state; designed switch direction (-1 OFF switch, 1 ON switch): -1; higher = weaker reporter binding; conditions: FMN input: 0 or 200 uM; Eterna round: R93 (includes R88 designs)
In short: as §1

Sequence	apparent KD of MS2 coat protein (MS2 coat protein [1])	apparent KD of MS2 coat protein (MS2 coat protein [2])
AAAAAACAUGAGGAUCACCCAUGUGAGGAUAUUGGUAUUGAGGGUAUAAUCUCAAUAGCGAGAAGGCGCAUAAA [Brourd 613 Mod 14 - Jieux - Exclusion 1]	0.0453 µM	0.0317 µM
AAAAAAGGAGGAUAUACGAACAUGUCAAAAGACGUGAAGGGACAUGAGGAUCACCCAUGUAGAAGGCUUAAAAA [JL Stem Breaker 4]	0.0192 µM	0.0422 µM
AAAAACGCAGGAUAUACAUGAGGAUCACCCAUGUAAAAAAAAAAAAAGGGAAAAAAAAGUAGAAGGGCGAAAAA [Menkhaure Snaaib]	0.0433 µM	0.0214 µM
AAAAAGAGAGGAUAUACAUGAGGAUCACCCAUGUAAAAAAGAAGAAAGAAAAAAAAAUGUAGAAGGCUCAAAAA ['Exclusion 3']	0.0343 µM	0.0359 µM
AAAAAGAUAGGAUAUACGAACAUGUCGAAAGACGUGAAGGGACAUGAGGAUCACCCAUGUAGAAGGAUUAAAAA [Mat - Exclusion 2 - JL mod - D89]	0.0168 µM	0.0419 µM
AAAAAGGAAGGAUAUACGAACAUGUCGAAAGACGUGAAGGGACAUGAGGAUCACCCAUGUAGAAGGUUCAAAAA [Mat - Exclusion 2 - JL mod - D80]	0.0193 µM	0.0336 µM
AAAAAGGCAGGAUAUACAAAAAAAAAAAAAGAGGAGGAGGGACAUGAGGAUCACCCAUGUAGAAGGGCCAAAAA [William Edward Burghardt 'W. E. B.' Du Bois]	0.0637 µM	0.0354 µM
AAAAAGGCAGGAUAUGCAUACACACGAAAAAAAAAACUGGGACAUGAGGAUCACCCAUGUAGAAGGGCCAAAAA [Dora Explored 9 - Jieux - Exclusion 2]	0.0419 µM	0.0675 µM
AAAAAGGUAGGAUAUACAUGAGGAUCACCCAUGUGAAAAGAAAAUAAGAAAAGAAAGUGUAGAAGGACCAAAAA [JL JSci Mod In the Red]	0.0441 µM	0.033 µM
AAAAAGGUAGGAUAUACGAAAAAAAAAAGGUGAAAAAAAAAACAUGAGGAUCACCCAUGUAGAAGGACCAAAAA [Ex 2 sub 1 70% 3]	0.062 µM	0.0365 µM
AAAAAGGUAGGAUAUGCAAAAAAUAAUUUAAAAAAAAAAAAACAUGAGGAUCACCCAUGUAGAAGGACCAAAAA [Design 2.0]	0.0288 µM	0.0259 µM
AAAAAGUCAGGAUAUCUGGAUAGGAAAAAGAAAACCUAUCCAGAGAAGGGACAUGAGGAUCACCCAUGUAAAAA [JL cataway mod 1]	0.0424 µM	0.0492 µM
AAAAAGUGAGGAUAUACGGUGAGGAGUAGACACAACCUGGCGUAGAAGGCACAUGAGGAUCACCCAUGUCCAAA [EX4 Malc#13]	0.0478 µM	0.0373 µM
AAAAAGUGAGGAUAUGCGCUGUGGAGUAGACACGACCAGUCGUAGAAGGCACAUGAGGAUCACCCAUGUUCAAA [EX4 Malc#21]	0.0253 µM	0.0274 µM
AAAAAUCGAGGAUAUACAUGAGGAUCACCCAUGUAAAAAAAAAAAAAGGGAAAAAAAAGUAGAAGGCGAAAAAA [Sekhemre-Heruhirmaat Intef VII]	0.03 µM	0.058 µM
AAAAAUGGAGGAUAUACAUGAGGAUCACCCAUGUGAGACCAAGAAAAAGAAAAAGAAAGUAGAAGGCCAUAAAA [Ex 3 May 24]	0.152 µM	0.0245 µM
AAAACACAUGAGGAUCACCCAUGUGAGGAUAUGCAUAAAAAAAAAAAAAAAAAAAAAUGCAGAAGGCACAUAAA [jn_camden]	0.0413 µM	0.021 µM
AAAACGUGAGGAUAUGCACCAAAAAAGGUAAAACGGGUACGACAUGAGGAUCACCCAUGUAGAAGGCACGAAAA [Frodo Flailing 10 - Jieux - Exclusion 2]	0.107 µM	0.046 µM
AAAACUGGAGGAUAUACGAACAUGUCAAAAGACGUGAAGGGACAUGAGGAUCACCCAUGUAGAAGGCUAGAAAA [JL Stem Breaker 10]	0.0342 µM	0.0523 µM
AAAAGCACAGGAUAUACAAGGAUAUGACGAAAGUCAUAAAAACAUGAGGAUCACCCAUGUAGAAGGGUGCAAAA [Mod of Meechl's... 64% 3]	0.136 µM	0.206 µM
AAAAGGAUAGGAUAUACAUGAGGAUCACCCAUGUUUAUAAAUAAAAGAAAUAAAGAAAGUAGAAGGGUCAAGAA [LROPPY Exclusion 3 - v07_deltaG=3.4]	0.0224 µM	0.0196 µM
AAAAGGUGAGGAUAUACAUGAGGAUCACCCAUGUAGAAAGGAAGUGUAAAAAAAAAGUGUAGAAGGCAUCAUGA [MS2 Riboswitches On Chip Exclusion 3 wbt3]	0.048 µM	0.0392 µM

Sequence	apparent KD of MS2 coat protein (MS2 coat protein [1])	apparent KD of MS2 coat protein (MS2 coat protein [2])
AAAAGGUUAGGAUAUGCGUGGAAAAAGUGUAUCUAAAAAAAACAUGAGGAUCACCCAUGUAGAAGGGACUUAAA [Banishment 5 - Jieux - Exclusion 2]	0.0371 µM	0.0497 µM
AAAAUACAUGAGGAUCACCCAUGUUAGGAUAUCGGAUAAAUAAAAUAAAAUAAAAUAACGAGAAGGGACAAUAA [Exclusion1 Malc#2]	0.0316 µM	0.0246 µM
AAAAUGUCAGGAUAUGUACGAAAAAAUAAAAAAAUAAAAGUACAGAAGGGACAUGAGGAUCACCCAUGUCAGGG [EX4 392: Minimal 4]	0.0746 µM	0.0979 µM
AAACAACAUGAGGAUCACCCAUGUCAGGAUAUGAACGAAAUAAAAUAAAAAUAAAAGUUCAGAAGGGACGAAAA [Mat - Exclusion 1 - Eli mod - D18]	0.0501 µM	0.0367 µM
AAACCACAUGAGGAUCACCCAUGUAAGGAUAUGAACGAAAUAAAAUAAAAAUAAAAGUUCAGAAGGUACAAAAA [Mat - Exclusion 1 - Eli mod - D22]	0.0221 µM	0.0226 µM
AAACCACAUGAGGAUCACCCAUGUCAGGAUAUGAACGAAAUAAAAUAAAAAUAAAAGUUCAGAAGGGACGAAAA [Mat - Exclusion 1 - Eli mod - D17]	0.0338 µM	0.0273 µM
AAAGGACGAGGAUAUACAUGAGGAUCACCCAUGUAAAAAACAUAACAAAAGAACUUAUGUAGAAGGCGUCCAAA [69%, Moding Meechl, 2]	0.403 µM	0.0544 µM
AAAGGACGAGGAUAUACAUGAGGAUCACCCAUGUAAGAAGCAUAAUAAAAUAACUUAUGUAGAAGGCGUCCAAA [Mat - Exclusion 3 - Eli mod - D94]	0.069 µM	0.026 µM
AAAGGAUCAGGAUAUGUGUGGAAAAAGUGUGUCCCAAAAAAACAUGAGGAUCACCCAUGUAGAAGGGAUCCAAA [Mod 5 of Normal (20/19) by Nando, Round 1]	0.0978 µM	0.0449 µM
AAAGGUACAGGAUAUGCGUGGAAAAAGUGUAUUCACCAACGACAUGAGGAUCACCCAUGUAGAAGGGUACCAAA [Mod of wbt1 from round 1]	0.0318 µM	0.0259 µM
AAAUGACAUGAGGAUCACCCAUGUCAGGAUAUGACUUGAAAAAAAAAAAAAAAACAUGUCAGAAGGGACAUGGA [Design 51: Sub-opt G]	0.0222 µM	0.0228 µM
AACAGGACAGGAUAUACAUGAGGAUCACCCAUGUAGGAAACAAGCAGAGUACCAAACAGUAGAAGGGUCAUGGA [Ruby 29]	0.0503 µM	0.0313 µM
AACAGGACAGGAUAUACAUGAGGAUCACCCAUGUAGGAAUUAAGCAGAGUACCAAACAGUAGAAGGGUCAUGGA [Ruby 27]	0.0447 µM	0.0333 µM
AACAGGGCAGGAUAUACAUGAGGAUCACCCAUGUAGGAAACAAGCAGAGUACCAAAAAGUAGAAGGGUCAUGGA [Ruby 31]	0.0331 µM	0.0302 µM
AACAGGUGAGGAUAUCUGGAUAGGAAAAAGAAAACCUAUCCAGAGAAGGCACAUGAGGAUCACCCAUGUAAAAA [JL cataway mod 8]	0.0962 µM	0.0785 µM
AACAGUACAGGAUAUACAUGAGGAUCACCCAUGUAAAAAAAGGGUGGCGUACCACGAAGUAGAAGGGUACUGGA [Moding Maslow revisited (73) 11]	0.0813 µM	0.187 µM
AACAGUACAGGAUAUACAUGAGGAUCACCCAUGUCACAAUUAAGCAGCGUAACACAAAGUAGAAGGGUAAUGGA [Ruby 17]	0.0311 µM	0.0464 µM
AACAGUACAGGAUAUACAUGAGGAUCACCCAUGUCACAGAAAUAAAACAAAAAUAAAAGUAGAAGGGUACUGGA [Ruby 41]	0.0367 µM	0.0312 µM
AACAGUACAGGAUAUACAUGAGGAUCACCCAUGUGAAAAUUAAGUGGAGUACCACAAGGUAGAAGGGUACUGGA [Mat - Exclusion 3 - Eli mod - D61]	0.101 µM	0.0277 µM
AACAGUACAGGAUAUACAUGAGGAUCACCCAUGUGAAUAAAUAGUGGCGUACCACAAAGUAGAAGGGUACUGGA [Mat - Exclusion 3 - JL mod - D25]	0.136 µM	0.0274 µM
AACAGUACAGGAUAUACAUGAGGAUCACCCAUGUGAGAGAAAUAAAACAAAAAUAAAAGUAGAAGGGUACUGAA [Mat - Exclusion 3 - Eli mod - D67]	0.036 µM	0.0318 µM
